Laboratory results from patent US20220363775A1 (Memorial Sloan Kettering, published 2022).

T1: human Adhesion G protein-coupled receptor E2 (ADGRE2) (human, UniProt Q9UHX3 24-823)
T1 construct: No signal peptide limits are stated; also called EMR2; CD312
T1 sequence: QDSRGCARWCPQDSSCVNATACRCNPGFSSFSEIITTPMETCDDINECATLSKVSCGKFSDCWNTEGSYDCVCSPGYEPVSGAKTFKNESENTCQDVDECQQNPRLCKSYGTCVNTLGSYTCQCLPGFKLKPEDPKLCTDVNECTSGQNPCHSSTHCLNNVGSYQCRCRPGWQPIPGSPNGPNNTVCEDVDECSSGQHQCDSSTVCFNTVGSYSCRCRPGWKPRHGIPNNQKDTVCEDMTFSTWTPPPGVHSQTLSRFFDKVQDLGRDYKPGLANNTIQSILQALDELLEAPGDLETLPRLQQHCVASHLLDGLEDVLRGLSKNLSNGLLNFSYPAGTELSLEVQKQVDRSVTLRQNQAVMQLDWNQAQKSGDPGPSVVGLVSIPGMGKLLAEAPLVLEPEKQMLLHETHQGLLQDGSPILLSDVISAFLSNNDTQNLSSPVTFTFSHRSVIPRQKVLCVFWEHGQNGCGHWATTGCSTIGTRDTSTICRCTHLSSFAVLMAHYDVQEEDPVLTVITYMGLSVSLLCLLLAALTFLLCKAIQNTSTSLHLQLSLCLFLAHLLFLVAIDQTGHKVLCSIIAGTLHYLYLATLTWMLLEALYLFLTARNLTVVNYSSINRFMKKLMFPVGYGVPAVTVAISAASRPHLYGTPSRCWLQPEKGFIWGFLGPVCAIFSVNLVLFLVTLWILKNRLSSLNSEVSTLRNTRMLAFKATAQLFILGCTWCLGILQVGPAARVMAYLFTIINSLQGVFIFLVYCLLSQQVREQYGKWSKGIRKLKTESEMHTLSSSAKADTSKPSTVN

T2: ADGRE3 (human, UniProt Q9BY15 22-652)
T2 construct: whole, on cells
T2 sequence (looked up): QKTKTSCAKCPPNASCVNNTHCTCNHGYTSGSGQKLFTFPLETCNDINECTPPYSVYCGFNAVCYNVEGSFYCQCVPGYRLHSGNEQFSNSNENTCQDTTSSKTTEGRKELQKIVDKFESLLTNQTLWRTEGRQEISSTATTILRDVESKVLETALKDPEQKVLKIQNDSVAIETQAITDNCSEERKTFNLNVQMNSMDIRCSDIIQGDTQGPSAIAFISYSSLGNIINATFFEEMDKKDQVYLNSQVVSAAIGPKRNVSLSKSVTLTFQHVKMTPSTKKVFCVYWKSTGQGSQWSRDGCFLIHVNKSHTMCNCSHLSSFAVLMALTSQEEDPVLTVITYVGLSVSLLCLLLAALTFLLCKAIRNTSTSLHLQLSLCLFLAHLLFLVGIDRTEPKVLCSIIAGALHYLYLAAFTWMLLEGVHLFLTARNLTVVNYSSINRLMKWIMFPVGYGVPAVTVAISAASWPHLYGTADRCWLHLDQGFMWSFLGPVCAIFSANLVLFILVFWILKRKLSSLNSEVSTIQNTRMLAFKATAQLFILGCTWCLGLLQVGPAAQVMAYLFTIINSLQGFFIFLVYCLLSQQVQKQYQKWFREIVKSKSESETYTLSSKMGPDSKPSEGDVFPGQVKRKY

T3: ADGRE5 (human, UniProt P48960 21-835)
T3 construct: whole, on cells
T3 sequence (looked up): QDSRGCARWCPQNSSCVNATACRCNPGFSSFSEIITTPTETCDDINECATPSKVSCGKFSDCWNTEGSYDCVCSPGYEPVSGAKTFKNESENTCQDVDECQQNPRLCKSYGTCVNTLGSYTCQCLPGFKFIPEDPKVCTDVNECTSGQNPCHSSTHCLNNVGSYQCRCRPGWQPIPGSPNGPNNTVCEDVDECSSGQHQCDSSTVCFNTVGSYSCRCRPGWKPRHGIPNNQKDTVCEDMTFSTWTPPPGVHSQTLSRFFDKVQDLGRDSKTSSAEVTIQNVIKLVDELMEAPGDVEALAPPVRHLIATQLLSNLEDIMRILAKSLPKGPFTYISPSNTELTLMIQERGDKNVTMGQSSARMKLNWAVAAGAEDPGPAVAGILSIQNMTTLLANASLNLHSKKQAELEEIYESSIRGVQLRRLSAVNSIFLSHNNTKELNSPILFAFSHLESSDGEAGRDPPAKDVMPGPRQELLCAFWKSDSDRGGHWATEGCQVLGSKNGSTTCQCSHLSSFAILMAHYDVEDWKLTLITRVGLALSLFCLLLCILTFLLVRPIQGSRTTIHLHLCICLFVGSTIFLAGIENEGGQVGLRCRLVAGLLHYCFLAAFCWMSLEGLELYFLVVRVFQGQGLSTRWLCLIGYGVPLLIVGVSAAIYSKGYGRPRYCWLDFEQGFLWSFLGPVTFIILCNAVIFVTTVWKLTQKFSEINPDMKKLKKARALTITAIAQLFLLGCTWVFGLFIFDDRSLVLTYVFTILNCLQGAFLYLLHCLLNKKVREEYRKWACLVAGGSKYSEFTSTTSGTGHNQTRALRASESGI

T4: ADGRE1 (human, UniProt Q14246 21-886)
T4 construct: whole, on cells
T4 sequence (looked up): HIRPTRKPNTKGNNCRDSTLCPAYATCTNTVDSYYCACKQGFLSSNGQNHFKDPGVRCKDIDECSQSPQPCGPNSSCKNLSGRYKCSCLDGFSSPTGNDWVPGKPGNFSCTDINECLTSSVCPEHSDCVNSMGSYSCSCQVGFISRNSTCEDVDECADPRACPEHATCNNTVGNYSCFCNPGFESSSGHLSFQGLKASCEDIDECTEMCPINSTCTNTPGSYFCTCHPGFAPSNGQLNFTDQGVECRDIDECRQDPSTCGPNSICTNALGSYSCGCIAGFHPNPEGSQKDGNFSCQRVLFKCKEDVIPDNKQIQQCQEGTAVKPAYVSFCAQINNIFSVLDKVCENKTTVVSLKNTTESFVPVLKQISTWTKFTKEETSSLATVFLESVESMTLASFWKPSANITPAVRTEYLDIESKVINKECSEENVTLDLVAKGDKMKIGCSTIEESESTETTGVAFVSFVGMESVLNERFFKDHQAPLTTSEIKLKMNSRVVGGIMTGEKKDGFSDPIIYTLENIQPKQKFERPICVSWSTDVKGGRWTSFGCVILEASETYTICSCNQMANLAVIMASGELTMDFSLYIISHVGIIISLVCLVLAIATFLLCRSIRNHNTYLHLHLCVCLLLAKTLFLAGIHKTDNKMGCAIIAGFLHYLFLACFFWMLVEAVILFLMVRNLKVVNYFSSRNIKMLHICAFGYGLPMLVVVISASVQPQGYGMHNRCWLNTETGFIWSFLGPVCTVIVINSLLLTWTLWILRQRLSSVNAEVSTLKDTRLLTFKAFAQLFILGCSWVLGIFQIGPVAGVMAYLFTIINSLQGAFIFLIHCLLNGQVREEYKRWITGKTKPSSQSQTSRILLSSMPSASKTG


How the values were obtained:
[1] = biological target: T1, human Adhesion G protein-coupled …; assay: flow cytometry, scFv titration on EL4 cells overexpressing ADGRE2
Procedure: This example illustrates the on-cell binding for the anti-ADGRE2 scFvs as measured by flow cytometry. The on-cell binding for the anti-ADGRE2 scFvs was assessed by flow cytometry on the E4 cells overexpressing ADGRE2. Each of the scFvs were tested for binding to ADGRE2 and compared to the Reference 1 mAb. Briefly, 100,000 cells per well, were plated in 96 well V bottom plate, scFvs were diluted to 200 nMscFv then 1:4 serially down to 0.01 nM. A dose dependent titration of the scFvs validated recombinant scFvs folding and binding to ADGRE2. EC₅₀ affinities were compared in order to better interpret any differences seen in-vivo that might be caused by variations in affinities resulting from the humanization process Data was analyzed using Prism software, using a four parameter regression. The approximate EC₅₀ values were determined using equation: Y=Bottom+(Top−Bottom)/(1+10\hat{ }((Log EC₅₀−X)*HillSlope)) where the fitted parameters are defined as follows: Bottom, the lower plateau describing minimum binding achievable; Top, the upper plateau describing the maximum binding achievable; Log EC50, the inflection point of the dose response curve also known as the concentration producing a half-maximal response; and Hill-Slope, the slope of the dose response curve.

[2] = biological target: T2, ADGRE3; assay: cell microarray screen on HEK293 cells overexpressing human membrane proteins
Procedure: (§1) The off-target binding interactions of ADGRE2 scFv (ADGRE2-A) and CLEC12A scFv (CLEC12A-A) to human plasma membrane proteins were carried out in a 4-phase approach: (1) pre-screening to determine the optimal concentrations of purified recombinant ADGRE2 scFv-Fc and CLEC12A scFv-Fc test proteins for the screening; (2) screening for binding of the test proteins against fixed HEK293 cells overexpressing 5,474 full-length human plasma membrane proteins and cell surface tethered human secreted proteins and 371 human cell surface heterodimers, which identified library hits; (3) confirmatory/specific screens using fixed-cell and live-cell microarrays; (4) flow cytometry-based follow-on study to investigate further identified test protein-specific interactions on live cells; and (5) cell-to-cell binding assays to confirm positive hits. The table below summarizes the off-binding data for ADGRE2 scFv and CLEC12A scFv.

[3] = biological target: T3, ADGRE5; assay: as above
Procedure: as §1

[4] = biological target: T4, ADGRE1; assay: as above
Procedure: as §1

Binder	EC50 [1] [nM]	also measured
ADGRE2-D scFv (scFv, Recombinant humanized scFv; Any tag is not described) scFv: QVQLQQSGAEVKKPGASVKVSCKASGYTFTNYWMQWVRQAPGQGLEWMGAVYPGDGDTRHTQKFKGRVTMTRDTSTSTVYMELSSLRSEDTAVYYCARGFTAYGMDYWGQGTLVTVSSASTGGGGSGGGGSGGGGSEIVLTQSPATLSLSPGERATLSCSASSSVSYMHWYQQKPGLAPRLLIYDTSKLASGIPDRFSGSGSGTDFTLTISRLEPEDFAVYYCQQWSSNPLTFGQGTKVEIK	16.4	–
ADGRE2-E scFv (scFv, Recombinant humanized scFv; Any tag is not described) scFv: QVQLQQSGAEVKKPGASVKVSCKASGYTFTNYWMQWVRQAPGQGLEWIGAVYPGDGDTRHTQKFKGRVTMTADKSTSTVYMELSSLRSEDTAVYYCARGFTAYGMDYWGQGTLVTVSSASTGGGGSGGGGSGGGGSQIVLTQSPATLSLSPGERATLTCSASSSVSYMHWYQQKPGLSPKRWIYDTSKLASGVPDRFSGSGSGTDYTFTIRRLEPEDFATYYCQQWSSNPLTFGQGTKVEIK	10.6	–
ADGRE2-C scFv (scFv, Recombinant humanized scFv; Any tag is not described) scFv: QVQLQQSGAEVKKPGASVKLSCKASGYTFTNYWMQWVRQAPGQGLEWIGAVYPGDGDTRYTQKFQGRATLTADTSTSTVYMEVSSLRSEDTAVYYCARGFTAYGMDYWGQGTTVTVSSGGGGSGGGGSGGGGSEIVLTQSPATMSASPGERVTMSCSASSSVSYMHWYQQKSGLSPKRWIYDTSKLASGVPDRFSGSGSGTDYTFTISRMEPEDFATYYCQQWSSNPLTFGGGTKLEIK	53.2	–
ADGRE2-F scFv (scFv, Recombinant humanized scFv; Any tag is not described) scFv: QVQLQQSGAEVKKPGASVKLSCKASGYTFTNYWMQWIRQAPGQGLEWIGAVYPGDGDTRYTQKFQGRATLTADTSTSTAYMEVSSLRSEDTAVYYCARGFTAYGMDYWGQGTTVTVSSGGGGSGGGGSGGGGSEIVLTQSPATLSASPGERVTMSCSASSSVSYMHWYQQKPGLAPRRWIYDTSKLASGVPDRFSGSGSGTDYTFTISRMEPEDFATYYCQQWSSNPLTFGGGTKLEIK	16.4	–
ADGRE2-A scFv (scFv, Recombinant humanized scFv; Any tag is not described) scFv: QVQLQQSGAEVAKPGASVKLSCKASGYTFTNYWMQWIKQAPGQGLEWIGAVYPGDGDTRHTQKFKGKATLTADKSTSTAYMEVSSLRSEDTAVYYCARGFTAYGMDYWGQGTTVTVSSGGGGSGGGGSGGGGSEIVLTQSPATMSASPGERVTMSCSASSSVSYMHWYQQKSGQSPKRWIYDTSKLASGVPARFSGSGSGTDYTFTISSMEPEDFATYYCQQWSSNPLTFGGGTKLEIK	93.8	–
ADGRE2 scFv-Fc (purified recombinant ADGRE2-A scFv fused to Fc) (Fc fusion, also called ADGRE2 scFv (ADGRE2-A); not shown: Fc part (and any linker) of the scFv-Fc is not described) QVQLQQSGAEVAKPGASVKLSCKASGYTFTNYWMQWIKQAPGQGLEWIGAVYPGDGDTRHTQKFKGKATLTADKSTSTAYMEVSSLRSEDTAVYYCARGFTAYGMDYWGQGTTVTVSSGGGGSGGGGSGGGGSEIVLTQSPATMSASPGERVTMSCSASSSVSYMHWYQQKSGQSPKRWIYDTSKLASGVPARFSGSGSGTDYTFTISSMEPEDFATYYCQQWSSNPLTFGGGTKLEIK	–	binding result [2]: no binding; binding result [3]: no binding; binding result [4]: no binding
ADGRE2-B scFv (scFv, Recombinant humanized scFv; Any tag is not described) scFv: QVQLQQSGAEVKKPGASVKLSCKASGYTFTNYWMQWIRQAPGQGLEWIGAVYPGDGDTRYTQKFQGRATLTADTSISTAYMEVSRLRSDDTAVYYCARGFTAYGMDYWGQGTTVTVSSGGGGSGGGGSGGGGSEIVLTQSPATMSASPGERVTMSCSASSSVSYMHWYQQKSGLSPKRWIYDTSKLASGVPDRFSGSGSGTDYTFTISRMEPEDFATYYCQQWSSNPLTFGGGTKLEIK	55.3	–
